Reference: paper PMC11800091 (iScience, 2025)

B1: 3E3 nanobody (VHH)
VHH: EVQLVESGGGLVQPGGSLRLSCAASQFTLESYAIGWFRQAPGKDSEGVACISSSTYYADSVKGRFTISRDNAKNTVYLQMESLKPEDTAVYHCATSGAGSYCTLRAFGSWGQGTQVTVSS
B2: LPETG sortag-3E3 nanobody (VHH)
VHH: EVQLVESGGGLVQPGGSLRLSCAASQFTLESYAIGWFRQAPGKDSEGVACISSSTYYADSVKGRFTISRDNAKNTVYLQMESLKPEDTAVYHCATSGAGSYCTLRAFGSWGQGTQVTVSS

Assays:
[1] = target: human immunodeficiency virus type 1 JR-CSF Fc-gp120 protein (HIV-1 JR-CSF) (UniProt P20871); test: BLI
[2] = target: human immunodeficiency virus type 1 JR-CSF Fc-gp120 protein (HIV-1 JR-CSF, UniProt P20871); test: BLI

Row | Molecule | Kd [1] | Kd [2]
1 | LPETG sortag-J3 nanobody (VHH) | 1.92 nM | 
2 | B1 |  | 3.33 nM
3 | B2 |  | 2.51 nM
